Assay results: the domain aggregation screens of Martell et al. (2025)

Test: soluble fraction after stress (log2 fold change); higher = more stays soluble; pooled small domains, quantitative proteomics
Conditions: stress: pH 4
Summary of the method: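 High-throughput quantitative proteomics was run on pooled custom libraries of small protein domains following pH 4 stress. Fold changes are on a log2 scale; higher values mean more of a domain remained soluble. The fold change in soluble amount is taken as a measure of aggregation propensity.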

Point of comparison: “HMSLNHDIWVQELKEKRSGYGISQSRLAIAAGMTRQYLSDIETGKVLPSAERKAAITEALERFNPD”, “soluble fraction (log2)” value -0.213. Against it:
- HMSIGPQMAGRRVLSGDLIARLEAFEGTVVLGRGVAREDALLIATQAGHVRWEPASRRLWVDSTA — within 0.2 log units, -0.0304
- HMSIHPRDKADLGTALSKWKKGALDDKQLELEVARVFMRTYGKKLEGQALNKAVAAWVAALTQSKK — higher, ≥ 0.43
- HMSINIDEEKKILGPNADQIIKGITTWGQGLVSKGIWSDADFEEFKIFAATGNGINALNKVRKYY — lower, -0.65
- HMSIQMPDLSITPVTDAKKKIESLQLQYKEVGEYNDSVIAGYVIRTEPASGSYLNEDEEVIIYVSKG — lower, -0.525
- HMSISEFNYTEFNGLVEKGQVSEVTISGREIEGRLTSGESFKTYSPETDNSALVGDLLKNNVKINGKP — within 0.2 log units, -0.158
- HMSITKDNLSIGTNIRISGFSDIGRIISIPNKGNQVQVQIGSAKMNIKINSIVEIIKEEKDFNKNISN — higher, 0.189
- HMSIYMNIYNEFKKYIIANVYKYDDKLPSVRSIALEYGINPNTVQRAFQLLEDEGYIKTISKKGVYVNYR — higher, 0.112
- HMSKAYLSVESNISGARVFVDGQKEGTTPLSDVLLSAGEHLILVKKQGYETYQKRVRFQKGRSMSLYVDLS — within 0.2 log units, -0.0554
- HMSKDQKKFFIEIVSIRGFGSQIGISILNKLSIPQIINAIKTQNKKEISSIPGIGQKMTERLILELNNKFK — lower, -0.691
- HMSKININTITESELKELPISTVKQKAIQDYLIDRGFISNIYDLLDIKEITSDDVSLLKKVVNVKLPY — lower, -0.796
- HMSKIVPVAYSQFLKDVKNGNVSQVEIRGNNIKGINNNGSSFSTYAPNDLSLIDKLEKSNVEIIVMPLE — within 0.2 log units, -0.232
- HMSKKLLVLQTSDDAKAKDVLSQNGYQLDDGDKLSIIETEQTKMADVIKLLSDNAIDIEDVQHVH — within 0.2 log units, -0.116
- HMSKLQETEIPVALEVEKIPGLSNELKQKLLKIKPQTIGQASRISGITPAAISILMIYIKKNESISAVK — within 0.2 log units, -0.399
- HMSKLQKTKYAGVYFTEDTQTRVKTYVARIVLAGIIDTEVVVGHSNDQHRTNAAIAYQRRLELIQEAKN — within 0.2 log units, -0.372
- HMSKLSLREIVKKFEEQIIQLHKRGLNHSEISREIVTKNSIDLGDSHIDSLRRAISVHLQTP — within 0.2 log units, -0.201
- HMSKPIREVAYETLKNAIVTGEIPAGSRIVETEYAERMHISRTPLREALRKLERDGLVEYVVRRGVVVRAF — within 0.2 log units, -0.303
- HMSKPTLTLKSNAYPYNLNGERINNYLGFTYIKKGATLNYQGSKRINGQNYYYIGDGAYIKNTTVGSTNN — higher, ≥ 0.43
- HMSKQDRRIRRTRRLLKESLIQLMQEKEFMNISVREVTERADLNRGTFYLHYQDTRHLLQDIENETL — lower, -1.86
- HMSKQEFVDRLRVSLSGKISPASVEDNARYYEDYINTHIRLGEPEEDVLEGLGDPRLIARSIVAAESV — within 0.2 log units, -0.0405
- HMSKQLGFKIKTARRKLNISQGDLSKKLEISPSYLNLIESGKRKVSTDLLMKASEILNLDLKKL — higher, ≥ 0.43
- HMSKQQFLDELAARLREEGAELLVAENLNFYRSYIEEEVAKGRSEEEVLAELGNPALIARSILDAAGF — lower, -1.15
- HMSKSIELMNEIKKYIEEYYLQYRQSPSTTKIAEAVGIARGTAYKYLVEMSERNMIEYDGQEISTEVTRKY — within 0.2 log units, -0.381
- HMSKSKSEIDKDPHFWSSLFQRIGEGESLRKIAKDSKIPKSTLWAWIRNDPQLALRYSEAQQ — higher, 0.00982
- HMSLAATLSPREIDTVRLIAVGSSNKEIARQLGIAETTVKIHVQHILRKLNLTSRVQVAVFANAEGII — within 0.2 log units, -0.407
- HMSLAISGRNQLHGIIEEVRSDGLLSQIYLRVGDQVLTAVITRDAVAELKLKRGDTAVAIMKSTEVMIARE — higher, 0.0191
- HMSLDLERAVALLSLPRPVGNHPEDGELVEAGIGRYGPYVKHGSKYANLPDADEVFTIGMNRAVEVLAAK — within 0.2 log units, -0.261
- HMSLDTASDKELLGLIVSEPIATRVLDAFRTLDATLFRTTPAELAAAAGVSSEHAQKIKAVAEIAARMLKP — within 0.2 log units, -0.363
- HMSLEDYVIIKNKTVKVYETEFDGAPVVTSSSVGQKLILVEYNDNFAKILYRAKDGLDYVGYIKRKDVYVR — lower, -1.04
- HMSLLLTPREASVWASEYLGKKVTSNNIIYLLNYGKIANHSTDLKENLIDKNELKIYYDSTIKSQKH — higher, 0.00309
- HMSLLQDRQRHEALAALGYYRGSVSAAWGAASVEALKAAQAALGVEVDGKWGPKTEDVIQAALGT — lower, -0.453
- HMSLLQTRQRHEALAALGFFKGDVAAEWSAASTEALRAAQASLGIRVDGKWGPQTEDAIGKALAERQG — higher, 0.108
- HMSLLTIDELSQATGVSVRTLRYYVSSGVLDKPTGETRNARYGTHHLDQVRNIKKLQEEGLTLNRILEIKK — within 0.2 log units, -0.405
- HMSLNNAHNTIFPRIIELMEMKQLENVLLIGGGIIPRKDIESLESSGVTKLYGPGTPVKETIEFITNWVK — lower, -0.533
- HMSLPKVLVPTDITVSQLAKYLEVDAIAIVKKLFGLGVVASLNQRLENEQMQLLGQEFGKDIIFTEN — within 0.2 log units, -0.318
- HMSLPTSDWKRALSLFDEALSLPPDARDAWLAHTIAREPAVSPLLQKLLGAHRRVETNDILATLPR — within 0.2 log units, -0.274
- HMSLQNTMANFAGGVLVLFLKPFKAGDYIVTKDGEGTVASIGLVYTTLLTIENKRIVIPNSSISNSPITN — lower, -0.673
- HMSLRGEKTYDEAHQKLIKSAVELFKNPLVSPEKITVSQIAKHAGVSVATAYNHFPENKLDIYGSIF — within 0.2 log units, -0.0613
- HMSLRVIEIFGTPQQMSARISLMDGSVTDVKVGQSIPGTSYKVASITGNGVWIQNGTAVSYTHL — higher, 0.00817
- HMSLSDADVERLLEVAIDIESLEEREGLYYQANESEPYSGWGKLMYDSGQVERLVPYKDGRWEGLWTIW — lower, -1.18
- HMSLSISSLVFFRKNAGLTQADIATAMSITQSAVARLEKRLLSDSDVTLKTLERYAEAVGIRMHVDFEP — within 0.2 log units, -0.0175
- HMSLSKEEFETISKQVLELAGAGPIPVKELLQKMERTSKEKAWKVIEFLQAEDKIVPDATGRIQL — lower, -0.457
- HMSLSKQETEFLTTFSASGKRVFTYQQATDYWQSKVAATNVLGRLVRKGWLQRLERGLYMIIPLEAGPERF — lower, -0.807
- HMSLSPAATRSRGYPSVLLTMKAPERLVSAAGPDRRAYLVGTDPLVIELPGVKGLYKVDPDQIVFE — within 0.2 log units, -0.0637
- HMSLTEEQVDSGLKEIRLALLEADVALPVVKNFITNIKPKAIGQEIIRSTSPGQMIVKIVYDELVSIL — lower, -0.85
- HMSLTEESAKSLIGLTENEAVKVAAERGWTVRVAMRDGEAFMLTQDYSENRVNLTVMKTLVTAVTI — within 0.2 log units, -0.0567
- HMSLTMPKLIGMHLFQAERTLNYYGFQYKVEGPDSASVVIDQYPKEGVTVDPHYPITLKIGPSA — higher, 0.206
- HMSLYGGYEIDIIKEEVVDAGIKLLRRRVIVADQRGISVYEGKPTFASDDQVLIKEGQYQIDKLG — lower, -1.46
- HMSMHVHTPNPDFKPSNTNALQEGQLVEHPKFGFGKVQKIETEGLNKKASIQFEHFGEKTLLLSFAKLRII — within 0.2 log units, -0.167
- HMSMLGTEQRVLVLGPARKGEGFLMARTDNNRIVNFEGPLSLVDTMVRVKVTDVYPHSLGGQLL — within 0.2 log units, -0.0321
- HMSMPDERMLTSWMMARVKAAGKTMTRDAWNEFFERSNDSMDHMDMEMEKLLSYVYDKDGITLEDVEA — within 0.2 log units, -0.381
- HMSMQIILLDKVVNLGGLGDVVKVKDGYARNYLIPQGKAKRANTANLAEFEARRVELERLAAEQLAQAQA — lower, -0.478
- HMSMRIDTNTLNYYVQNAQISLSVLRTKINNLDQFLSGEKQPTFNQLSEIAKKINVPTGLLLLNKS — lower, -0.698
- HMSMSKISNLLEIMMIIQYKGLTTASELAQSLGVDKKTVYRYINSLSKANIPIYTKKGRYGGFYIDKNF — higher, 0.138
- HMSMSTVGERIKKKRKNLNFTQQELAAKLNISAQAVSKWENGVALPDLGLMPKLAQVLESTVDGLLGYQGA — within 0.2 log units, -0.235
